Key:
FcγRIIa H [1] = target: T1, FcγRIIa H (human, UniProt P12318 34-217); assay: SPR (Biacore); He/Con_2aH divided by He/Con_2b (FcγRIIb) of the same antibody
T1 construct: extracellular domain; Soluble His-tagged extracellular domain expressed in FreeStyle293 cells; also called FcγRIIa type H; FcgRIIa H; not shown: His tag attached to the C terminus
T1 sequence (looked up): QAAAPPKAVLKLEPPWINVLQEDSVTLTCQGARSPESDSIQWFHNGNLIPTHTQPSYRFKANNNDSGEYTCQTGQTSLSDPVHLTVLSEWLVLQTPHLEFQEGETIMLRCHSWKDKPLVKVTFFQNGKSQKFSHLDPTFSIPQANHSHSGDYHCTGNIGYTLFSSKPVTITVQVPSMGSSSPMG
Method: (§1) The heterodimerized antibodies He Abs in which one of the H chains was introduced with an alteration were assayed for their binding activities to each activating FcγR and inhibitory FcγR according to the method described in Example 4. […] The activating FcγRs in FIGS. 26, 27, 28, and 29 are FcγRIa, FcγRIIa (R), FcγRIIa (H), and FcγRIIIa, respectively.
(§2) Analysis of interaction between objective antibody and the FcγR was carried out using Biacore T100 (GE Healthcare). HBS-EP+ (GE Healthcare) was used as the running buffer, and the measurement temperature was set to 25° C. Chips produced by immobilizing the antigen peptide by the amine coupling method to a Series S Sencor Chip CM5 (GE Healthcare), or alternatively, chips produced by allowing preliminarily biotinylated antigen peptides to interact with and immobilize onto a Series S Sensor Chip SA (certified) (GE Healthcare) were used. Antibodies of interest were captured onto an antigen peptide-immobilized chip, and allowed to interact to each FcγR diluted with running buffer. To regenerate and repeatedly use the chip, the antibodies captured on the chip were washed off by reacting 10 mM glycine-HCl, pH 1.5.

FcγRIIb = target: T2, FcγRIIb (human, UniProt P31994 43-217); assay: SPR (Biacore), captured antibody, FcγR analyte; relative to GpH7-A5/GpH7-B3/GpL16-k0 = 100
T2 construct: extracellular domain; Soluble His-tagged extracellular domain expressed in FreeStyle293 cells; also called FcgRIIb; 2b; not shown: His tag attached to the C terminus
T2 sequence (looked up): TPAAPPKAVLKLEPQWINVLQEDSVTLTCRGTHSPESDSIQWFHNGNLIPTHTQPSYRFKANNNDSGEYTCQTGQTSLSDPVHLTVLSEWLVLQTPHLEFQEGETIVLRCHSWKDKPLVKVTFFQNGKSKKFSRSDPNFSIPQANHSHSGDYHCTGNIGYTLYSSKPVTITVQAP
Method: as §1, §2

FcγRIIa H [2] = target: T1, FcγRIIa H; assay: as above
Method: as §1, §2

[3] = target: T3, FcγRIIb extracellular domain with C-terminal His tag (human, UniProt P31994 43-217); assay: SPR Biacore, relative binding amount
T3 construct: extracellular domain; Soluble receptor expressed in FreeStyle293 cells and used as analyte in Biacore; also called FcgRIIb; 2b; not shown: His tag at the C terminus
T3 sequence (looked up): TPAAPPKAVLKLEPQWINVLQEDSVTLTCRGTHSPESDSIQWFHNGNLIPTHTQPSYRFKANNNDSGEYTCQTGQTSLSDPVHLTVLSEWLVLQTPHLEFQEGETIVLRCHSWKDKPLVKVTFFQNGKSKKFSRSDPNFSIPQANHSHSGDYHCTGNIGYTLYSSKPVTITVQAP

[4] = target: T4, FcγRIa extracellular domain with C-terminal His tag (human, UniProt P12314 16-292); assay: SPR Biacore, relative binding amount
T4 construct: extracellular domain; Soluble receptor expressed in FreeStyle293 cells and used as analyte in Biacore; also called FcgRI; 1a; not shown: His tag at the C terminus
T4 sequence (P12314 16-292): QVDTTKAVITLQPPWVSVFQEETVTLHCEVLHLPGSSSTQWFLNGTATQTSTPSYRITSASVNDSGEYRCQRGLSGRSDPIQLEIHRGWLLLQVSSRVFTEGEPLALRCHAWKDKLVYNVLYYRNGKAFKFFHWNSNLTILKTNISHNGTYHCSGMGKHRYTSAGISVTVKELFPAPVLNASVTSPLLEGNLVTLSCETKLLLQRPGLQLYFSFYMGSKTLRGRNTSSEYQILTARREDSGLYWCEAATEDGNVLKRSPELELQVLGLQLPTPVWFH

[5] = target: T4, FcγRIa extracellular domain with …; assay: SPR Biacore; relative binding to FcγRIa divided by that to FcγRIIb

Row | Binder | He_2aH/2b (FcγRIIa H [1]) [ratio] | He/Con_2b (FcγRIIb) | He/Con_2aH (FcγRIIa H [2]) | He/Con_2b [3] | He/Con_1a [4] | Ia/IIb He_1a/2b [5]
1 | GpH7-A5/GpH7-B3 variant N325_10E/GpL16-k0 (antibody, human IgG1, kappa, Heterodimerized anti-glypican-3 IgG1; mutation in the GpH7-B3 H chain only; also called He Ab) heavy 1: not shown heavy 2: not shown light: DIVMTQSPLSLPVTPGEPASISCQASESLVHSNRNTYLHWYLQKPGQSPQLLIYKVSNRFSGVPDRFSGSGSGTDFTLKISRVEAEDVGVYYCSQNTHVPPTFGQGTKVEIERTVAAPSVFIFPPSDEQLKSGTASVVCLLNNFYPREAKVQWKVDNALQSGNSQESVTEQDSKDSTYSLSSTLTLSKADYEKHKVYACEVTHQGLSSPVTKSFNRGEC | 0.55 | 95.9 relative (control = 100) | 52.5 relative (control = 100) |  |  | 
2 | GpH7-A5/GpH7-B3 variant K326_20W/GpL16-k0 (antibody, human IgG1, kappa, Heterodimerized anti-glypican-3 IgG1; mutation in the GpH7-B3 H chain only; also called He Ab) heavy 1: not shown heavy 2: not shown light: DIVMTQSPLSLPVTPGEPASISCQASESLVHSNRNTYLHWYLQKPGQSPQLLIYKVSNRFSGVPDRFSGSGSGTDFTLKISRVEAEDVGVYYCSQNTHVPPTFGQGTKVEIERTVAAPSVFIFPPSDEQLKSGTASVVCLLNNFYPREAKVQWKVDNALQSGNSQESVTEQDSKDSTYSLSSTLTLSKADYEKHKVYACEVTHQGLSSPVTKSFNRGEC | 0.56 | 148 relative (control = 100) | 83.3 relative (control = 100) |  |  | 
3 | heterodimerized antibody GpH7-A5/GpH7-B3 variant Q295_18N/GpL16-k0 (antibody, human IgG1, kappa, Substitution in only one H chain (GpH7-B3 side); also called He Ab) heavy 1: not shown heavy 2: not shown light: DIVMTQSPLSLPVTPGEPASISCQASESLVHSNRNTYLHWYLQKPGQSPQLLIYKVSNRFSGVPDRFSGSGSGTDFTLKISRVEAEDVGVYYCSQNTHVPPTFGQGTKVEIERTVAAPSVFIFPPSDEQLKSGTASVVCLLNNFYPREAKVQWKVDNALQSGNSQESVTEQDSKDSTYSLSSTLTLSKADYEKHKVYACEVTHQGLSSPVTKSFNRGEC |  |  |  | 64.9 % of GpH7-A5/GpH7-B3/GpL16-k0 (=100) | 102 % of GpH7-A5/GpH7-B3/GpL16-k0 (=100) | 1.58 ratio of He/Con_1a to He/Con_2b
4 | GpH7-A5/GpH7-B3 variant N325_07I/GpL16-k0 (antibody, human IgG1, kappa, Heterodimerized anti-glypican-3 IgG1; mutation in the GpH7-B3 H chain only; also called He Ab) heavy 1: not shown heavy 2: not shown light: DIVMTQSPLSLPVTPGEPASISCQASESLVHSNRNTYLHWYLQKPGQSPQLLIYKVSNRFSGVPDRFSGSGSGTDFTLKISRVEAEDVGVYYCSQNTHVPPTFGQGTKVEIERTVAAPSVFIFPPSDEQLKSGTASVVCLLNNFYPREAKVQWKVDNALQSGNSQESVTEQDSKDSTYSLSSTLTLSKADYEKHKVYACEVTHQGLSSPVTKSFNRGEC | 0.22 | 171 relative (control = 100) | 38.1 relative (control = 100) |  |  | 
5 | GpH7-A5/GpH7-B3 variant N325_09D/GpL16-k0 (antibody, human IgG1, kappa, Heterodimerized anti-glypican-3 IgG1; mutation in the GpH7-B3 H chain only; also called He Ab) heavy 1: not shown heavy 2: not shown light: DIVMTQSPLSLPVTPGEPASISCQASESLVHSNRNTYLHWYLQKPGQSPQLLIYKVSNRFSGVPDRFSGSGSGTDFTLKISRVEAEDVGVYYCSQNTHVPPTFGQGTKVEIERTVAAPSVFIFPPSDEQLKSGTASVVCLLNNFYPREAKVQWKVDNALQSGNSQESVTEQDSKDSTYSLSSTLTLSKADYEKHKVYACEVTHQGLSSPVTKSFNRGEC | 0.43 | 124 relative (control = 100) | 53.1 relative (control = 100) |  |  | 
6 | GpH7-A5/GpH7-B3 variant N325_05P/GpL16-k0 (antibody, human IgG1, kappa, Heterodimerized anti-glypican-3 IgG1; mutation in the GpH7-B3 H chain only; also called He Ab) heavy 1: not shown heavy 2: not shown light: DIVMTQSPLSLPVTPGEPASISCQASESLVHSNRNTYLHWYLQKPGQSPQLLIYKVSNRFSGVPDRFSGSGSGTDFTLKISRVEAEDVGVYYCSQNTHVPPTFGQGTKVEIERTVAAPSVFIFPPSDEQLKSGTASVVCLLNNFYPREAKVQWKVDNALQSGNSQESVTEQDSKDSTYSLSSTLTLSKADYEKHKVYACEVTHQGLSSPVTKSFNRGEC | 0.8 | 26 relative (control = 100) | 20.7 relative (control = 100) |  |  | 
7 | GpH7-A5/GpH7-B3 variant N325_04F/GpL16-k0 (antibody, human IgG1, kappa, Heterodimerized anti-glypican-3 IgG1; mutation in the GpH7-B3 H chain only; also called He Ab) heavy 1: not shown heavy 2: not shown light: DIVMTQSPLSLPVTPGEPASISCQASESLVHSNRNTYLHWYLQKPGQSPQLLIYKVSNRFSGVPDRFSGSGSGTDFTLKISRVEAEDVGVYYCSQNTHVPPTFGQGTKVEIERTVAAPSVFIFPPSDEQLKSGTASVVCLLNNFYPREAKVQWKVDNALQSGNSQESVTEQDSKDSTYSLSSTLTLSKADYEKHKVYACEVTHQGLSSPVTKSFNRGEC | 0.23 | 143 relative (control = 100) | 33.4 relative (control = 100) |  |  | 
8 | GpH7-A5/GpH7-B3 variant N325_06M/GpL16-k0 (antibody, human IgG1, kappa, Heterodimerized anti-glypican-3 IgG1; mutation in the GpH7-B3 H chain only; also called He Ab) heavy 1: not shown heavy 2: not shown light: DIVMTQSPLSLPVTPGEPASISCQASESLVHSNRNTYLHWYLQKPGQSPQLLIYKVSNRFSGVPDRFSGSGSGTDFTLKISRVEAEDVGVYYCSQNTHVPPTFGQGTKVEIERTVAAPSVFIFPPSDEQLKSGTASVVCLLNNFYPREAKVQWKVDNALQSGNSQESVTEQDSKDSTYSLSSTLTLSKADYEKHKVYACEVTHQGLSSPVTKSFNRGEC | 0.22 | 217 relative (control = 100) | 48.2 relative (control = 100) |  |  | 

Reference: patent publication US20180155451A1 (published 2018)
